# T1: CD20 on the CD20 expressing human mantle cell lymphoma cell line Jeko-1 (human, UniProt P11836 1-297)
# T1 construct: whole, on cells; The target is presented on Jeko-1 cells; also called CD20 antigen
# T1 sequence (looked up): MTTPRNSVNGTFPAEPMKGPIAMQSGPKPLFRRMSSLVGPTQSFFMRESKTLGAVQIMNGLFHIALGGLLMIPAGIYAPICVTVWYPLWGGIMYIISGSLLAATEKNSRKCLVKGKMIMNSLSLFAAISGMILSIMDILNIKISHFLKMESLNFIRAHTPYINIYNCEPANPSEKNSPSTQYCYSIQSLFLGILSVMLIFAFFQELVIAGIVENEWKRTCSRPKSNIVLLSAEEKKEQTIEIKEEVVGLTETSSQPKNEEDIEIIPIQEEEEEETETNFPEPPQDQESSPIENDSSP
# B1: TG-1101 (anti-CD20 IgG1 monoclonal antibody expressed in YB2/0 rat hybridoma cells) (antibody)
# heavy: not shown
# light: QIVLSQSPAILSASPGEKVTMTCRASSSVSYMHWYQQKPGSSPKPWIYATSNLASGVPARFSGSGSGTSYSFTISRVEAEDAATYYCQQWTFNPPTFGGGTRLEIKRTVAAPSVFIFPPSDEQLKSGTASVVCLLNNFYPREAKVQWKVDNALQSGNSQESVTEQDSKDSTYSLSSTLTLSKADYEKHKVYACEVTHQGLSSPVTKSFNRGEC
# modifications: N-linked glycans with low fucosylation (18.4-27.5 % fucosylation in the 10 L cultures of Table 7)
# notes: also called ublituximab; UBX
# Experiments:
# [1] = molecular target: T2, C1q (complement component 1q) (UniProt P02745 23-245; P02746 28-253; P02747 29-245); test: C1q ELISA, 4-parameter logistic fit; % potency relative to reference standard; TG-1101 from 10 L culture at post-shift pH 6.70 +/- 0.10
# T2 sequence (P02745 23-245, chain 1 of 3): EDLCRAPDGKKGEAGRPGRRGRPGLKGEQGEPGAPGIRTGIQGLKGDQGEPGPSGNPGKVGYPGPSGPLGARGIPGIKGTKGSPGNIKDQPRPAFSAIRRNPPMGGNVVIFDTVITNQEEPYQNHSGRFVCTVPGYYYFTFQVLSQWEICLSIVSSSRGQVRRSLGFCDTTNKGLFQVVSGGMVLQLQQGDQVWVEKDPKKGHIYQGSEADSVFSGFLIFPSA
# T2 sequence (P02746 28-253, chain 2 of 3): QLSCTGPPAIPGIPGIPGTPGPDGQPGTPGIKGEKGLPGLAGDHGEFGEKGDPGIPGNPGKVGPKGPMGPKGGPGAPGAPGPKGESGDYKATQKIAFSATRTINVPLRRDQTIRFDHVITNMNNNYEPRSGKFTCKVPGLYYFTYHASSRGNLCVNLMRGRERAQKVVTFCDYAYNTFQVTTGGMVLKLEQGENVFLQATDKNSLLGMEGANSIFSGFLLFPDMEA
# T2 sequence (P02747 29-245, chain 3 of 3): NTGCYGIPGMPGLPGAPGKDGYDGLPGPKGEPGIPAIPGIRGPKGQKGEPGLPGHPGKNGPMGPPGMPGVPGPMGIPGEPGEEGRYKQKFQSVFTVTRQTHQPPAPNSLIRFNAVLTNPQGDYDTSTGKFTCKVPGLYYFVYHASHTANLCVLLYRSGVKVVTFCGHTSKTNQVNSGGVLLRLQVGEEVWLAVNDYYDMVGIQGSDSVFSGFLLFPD
# Description: (§1) The binding of anti-CD20 antibody to C1q is evaluated using a C1q ELISA-based method. The dose-response binding is modeled by weighted nonlinear regression using a 4-parameter logistic fit, and the results are reported as % potency relative to the reference standard.
# (§2) Purified antibody (TG-1101) from each of the 10 L bioreactor cultures was also tested in various binding assays (CD20 antigen, Fc gamma receptor, complement component 1q), as well as Fc effector activity assays (ADCC, CDC).
# [2] = molecular target: T2, C1q (complement component 1q); test: C1q ELISA, 4-parameter logistic fit; % potency relative to reference standard; TG-1101 from 10 L culture at post-shift pH 6.80 +/- 0.03
# Description: as §1, §2
# [3] = molecular target: T2, C1q (complement component 1q); test: C1q ELISA, 4-parameter logistic fit; % potency relative to reference standard; TG-1101 from 10 L culture at post-shift pH 6.85 +/- 0.05
# Description: as §1, §2
# [4] = molecular target: T2, C1q (complement component 1q); test: C1q ELISA, 4-parameter logistic fit; % potency relative to reference standard; TG-1101 from 10 L culture at post-shift pH 6.95 +/- 0.05
# Description: as §1, §2
# [5] = molecular target: T3, FcγRIIIa-158V (Fc gamma receptor 3a, higher affinity allele) (UniProt P08637 17-208); test: SPR, Fc receptor immobilised on chip, antibody injected; 1:1 Langmuir fit; % potency relative to reference standard; TG-1101 from 10 L culture at post-shift pH 6.70 +/- 0.10
# T3 construct: Immobilised directly on the SPR chip; also called Fc receptor
# T3 sequence (P08637 17-208 F176V): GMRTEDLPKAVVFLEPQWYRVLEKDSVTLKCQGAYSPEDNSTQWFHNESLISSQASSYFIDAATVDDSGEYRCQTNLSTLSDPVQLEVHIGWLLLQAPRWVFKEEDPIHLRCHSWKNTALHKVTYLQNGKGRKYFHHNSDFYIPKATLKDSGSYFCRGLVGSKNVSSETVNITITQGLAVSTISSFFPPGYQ
# Description: (§3) The binding of anti-CD20 antibody samples to FcγRIIIa is evaluated by surface plasmon resonance (SPR). The method follows a direct binding assay methodology where the Fc receptor (ligand) is directly immobilized onto the appropriate flow cell on a sensor chip surface and the analyte is injected over the chip to assess binding. The high affinity allele of FcγRIIIa (158V) is determined.
# (§4) The equilibrium dissociation constants (KD) and the relative affinities of each sample relative to the reference standard is determined for each receptor. The rates of change of the SPR signal is analyzed using a 1:1 Langmuir model to yield apparent rate constants for the association and dissociation phases of the reaction, and equilibrium dissociation constants. Results are reported as % potency relative to the reference standard for the FcγRIIIa-158V variant.
# as §2
# [6] = molecular target: T3, FcγRIIIa-158V (Fc gamma receptor 3a, …); test: SPR, Fc receptor immobilised on chip, antibody injected; 1:1 Langmuir fit; % potency relative to reference standard; TG-1101 from 10 L culture at post-shift pH 6.80 +/- 0.03
# Description: as §3, §4, §2
# [7] = molecular target: T3, FcγRIIIa-158V (Fc gamma receptor 3a, …); test: SPR, Fc receptor immobilised on chip, antibody injected; 1:1 Langmuir fit; % potency relative to reference standard; TG-1101 from 10 L culture at post-shift pH 6.85 +/- 0.05
# Description: as §3, §4, §2
# [8] = molecular target: T3, FcγRIIIa-158V (Fc gamma receptor 3a, …); test: SPR, Fc receptor immobilised on chip, antibody injected; 1:1 Langmuir fit; % potency relative to reference standard; TG-1101 from 10 L culture at post-shift pH 6.95 +/- 0.05
# Description: as §3, §4, §2
# [9] = molecular target: T1, CD20 on the CD20 expressing human …; test: Cell-based binding to Jeko-1 cells, Meso Scale Discovery electrochemiluminescence, 4PL; % potency relative to reference standard; TG-1101 from 10 L culture at post-shift pH 6.70 +/- 0.10
# Description: (§5) In the CD20 binding activity assay, the binding of anti-CD20 antibody to the CD20 expressing human mantle cell lymphoma cell line, Jeko-1, is evaluated using the Meso Scale Discovery (MSD) method. Dose response curves are modeled using 4PL equation, and results are reported as % potency relative to the reference standard.
# as §2
# [10] = molecular target: T1, CD20 on the CD20 expressing human …; test: Cell-based binding to Jeko-1 cells, Meso Scale Discovery electrochemiluminescence, 4PL; % potency relative to reference standard; TG-1101 from 10 L culture at post-shift pH 6.80 +/- 0.03
# Description: as §5, §2
# [11] = molecular target: T1, CD20 on the CD20 expressing human …; test: Cell-based binding to Jeko-1 cells, Meso Scale Discovery electrochemiluminescence, 4PL; % potency relative to reference standard; TG-1101 from 10 L culture at post-shift pH 6.85 +/- 0.05
# Description: as §5, §2
# [12] = molecular target: T1, CD20 on the CD20 expressing human …; test: Cell-based binding to Jeko-1 cells, Meso Scale Discovery electrochemiluminescence, 4PL; % potency relative to reference standard; TG-1101 from 10 L culture at post-shift pH 6.95 +/- 0.05
# Description: as §5, §2
binder,measurement,setting,value
B1,C1q binding (%) relative to the reference standard,[1],86.6%
same,C1q binding (%) relative to the reference standard,[2],84.5%
same,C1q binding (%) relative to the reference standard,[3],81.2%
same,C1q binding (%) relative to the reference standard,[4],76.5%
same,FcγRIIIa-158V binding (%) relative to the reference standard,[5],120%
same,FcγRIIIa-158V binding (%) relative to the reference standard,[6],98.2%
same,FcγRIIIa-158V binding (%) relative to the reference standard,[7],108%
same,FcγRIIIa-158V binding (%) relative to the reference standard,[8],109%
same,CD20 binding (%) relative to the reference standard,[9],116%
same,CD20 binding (%) relative to the reference standard,[10],96.8%
same,CD20 binding (%) relative to the reference standard,[11],89.5%
same,CD20 binding (%) relative to the reference standard,[12],110%
